{"source": "paper PMC3985891", "about": "(Biochemistry, 2014)", "target": "the molecule itself", "experiment": "SEC-MALS"}
{"protein": "MVP-s (codon-optimized synthetic MVP, M. jannaschii voltage-gated protein), N-terminal His tag, from pET15b (natural protein, Methanococcus jannaschii, UniProt Q57603 1-209, looked up) MNLKDRRLKKIMEVLSLIFTFEIVASFILSTYNPPYQDLLIKLDYISIMFFTFEFIYNFYYVEDKAKFFKDIYNIVDAIVVIAFLLYSLQVFYSKAFLGLRVINLLRILVLLRIIKLRKLEENQALINFLTLLTICFIASCLIWIVESGVNPAINNFFDAFYFTTISITTVGYGDITPKTDAGKLIIIFSVLFFISGLITSLQKALKGD", "values": [{"measurement": "stoichiometry N", "value": 4}]}
